Measured values reported in the supplement of paper PMC10724198.
± gives the standard deviation of the averaged measurements.

Tested on: Saccharomyces cerevisiae
Assay: protein stability index of tFT-peptide fusion (C-terminal peptide) (PSI (0-1 scale)); higher = more stable (slower turnover)
Details: genetic background: wild type; temperature: 30 C
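Note: PSI is a weighted mean of sequencing reads over stability bins, variants kept only with over 10 reads, mCherry proximal and sfGFP distal, peptide attached via GGGS linker.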

Sequence	protein stability index
PKPDFPGRHLSR	0.654 ± 0.093
PKSFLRRLRGWA	0.701 ± 0.07
PLAHYRPLPPRL	0.787 ± 0.063
PLAMRVALFSPP	0.651 ± 0.0089
PLAPSPPLPAFC	0.693 ± 0.02
PLAPSTPPNLSN	0.643 ± 0.073
PLASPYRLCPVP	0.624 ± 0.044
PLCPPPLPTPPP	0.5849 ± 0.0028
PLCPPPPVASFV	0.64 ± 0.013
PLDLPPLPLPPP	0.763 ± 0.15
PLFRHAPPSTLH	0.739 ± 0.014
PLFSLRPSIPFS	0.72 ± 0.033
PLGCFQQDVYEK	0.733 ± 0.089
PLHLPPFRPSPR	0.676 ± 0.12
PLHPPLSGPLPP	0.723 ± 0.021
PLHPPSLPPSRS	0.65 ± 0.059
PLLAPVPLTLTP	0.722 ± 0.022
PLLGPFTPSSLL	0.737 ± 0.0088
PLLHSARSSPFR	0.699 ± 0.049
PLLLLFLSLFRR	0.63 ± 0.023
PLLPLRSPPPLV	0.637 ± 0.046
PLLPPLPVSPLP	0.704 ± 0.038
PLLPRLNIPREF	0.658 ± 0.056

Sequence	protein stability index
PLLSCLFLLFFL	0.526 ± 0.0065
PLLSLGCFPFCL	0.724 ± 0.082
PLLVLPGPLLTP	0.668 ± 0.097
PLPFSPPFPPSS	0.732 ± 0.055
PLPFWPPPPRRP	0.674 ± 0.066
PLPIGLRHVKSE	0.696 ± 0.018
PLPIPPRRPNSP	0.65 ± 0.091
PLPLLPTNPSPP	0.636 ± 0.0096
PLPLPAPPPPSP	0.663 ± 0.01
PLPPFPPSPPFT	0.684 ± 0.036
PLPPLPPPPPPP	0.639 ± 0.051
PLPPPAIPRLCA	0.636 ± 0.029
PLPPPLLPRTRL	0.694 ± 0.11
PLPPPPLAPPPP	0.687 ± 0.014
PLPPPPPARLVP	0.649 ± 0.048
PLPPPPPPPHSP	0.738 ± 0.05
PLPPPPPPPPRL	0.678 ± 0.0073
PLPPPPPPPRSP	0.718 ± 0.077
PLPPPPPPPSTP	0.784 ± 0.0098
PLPPPPRLRCSS	0.649 ± 0.069
PLPPPPTPPSLS	0.716 ± 0.046
PLPPPRFPPPRL	0.68 ± 0.12
PLPPPRPPPSPP	0.603 ± 0.071

Sequence	protein stability index
PLPPPRSSPVSS	0.658 ± 0.04
PLPPRLPPPPPS	0.72 ± 0.048
PLPPSRLSPSPP	0.7 ± 0.0036
PLPPTPSLDPSS	0.6992 ± 0.0033
PLPPVVSFALSR	0.661 ± 0.061
PLPRPPPPANSP	0.714 ± 0.063
PLPRSPLHPSVP	0.74 ± 0.03
PLPSLPPSLAPW	0.692 ± 0.078
PLPSPASPSPPP	0.67 ± 0.12
PLPSPLLPRSVL	0.705 ± 0.045
PLPSPSLLLHCP	0.592 ± 0.0013
PLPTPHPHKPYQ	0.771 ± 0.025
PLPVRPGQHRIL	0.6918 ± 0.0024
PLRKGVHTHNNK	0.632 ± 0.053
PLRLLSTPSPLS	0.755 ± 0.049
PLRLPVPLPSPP	0.6571 ± 0.0062
PLRPGILLNKLP	0.646 ± 0.046
PLRPPPPPLAPP	0.697 ± 0.035
PLRPPPRPRQTH	0.671 ± 0.056
PLRPPPSPLSPR	0.76 ± 0.055
PLRPSVSALPPF	0.683 ± 0.018
PLRQRCIYDVPI	0.7688 ± 0.0039
PLRSLRFYTTLS	0.649 ± 0.018

Sequence	protein stability index
PLRVATTLGYPL	0.649 ± 0.081
PLRVDLTHQQWS	0.574 ± 0.11
PLRYPQLTLPPP	0.6381 ± 0.0037
PLSDRGGRFPML	0.7 ± 0.053
PLSLIAFAISPC	0.637 ± 0.015
PLSPFLPPPVPL	0.703 ± 0.13
PLSPFLRFLSSP	0.605 ± 0.072
PLSPPLPPAIPS	0.698 ± 0.063
PLSPPPRPPPSP	0.654 ± 0.066
PLSPPPRRPPSP	0.655 ± 0.022
PLSSILSPSSPA	0.729 ± 0.052
PLTFRYQSHSAH	0.702 ± 0.11
PLTNPPRSRKSS	0.783 ± 0.12
PLTTTPPTRHTP	0.6978 ± 0.004
PLWHCFRFLSGS	0.607 ± 0.014
PMPPPRRPTALC	0.716 ± 0.038
PNPPPPPPPSSP	0.742 ± 0.058
PNRPPLQFFPPP	0.697 ± 0.05
PNSTIVATKGVT	0.648 ± 0.076
PPAASSFRLSSC	0.751 ± 0.1
PPALPPTGHPPF	0.709 ± 0.013
PPAPFAICRTRS	0.654 ± 0.018
PPAPPAPPPSVG	0.708 ± 0.03

Sequence	protein stability index
PPAPPPPPPSPP	0.659 ± 0.029
PPAPPPPSTPHP	0.672 ± 0.13
PPAPPPVSPPRP	0.7075 ± 0.0027
PPAPPSQPINAT	0.709 ± 0.053
PPAPSPPLPSLA	0.694 ± 0.037
PPAPTHSAPSQI	0.655 ± 0.07
PPARTPPGLPRP	0.723 ± 0.29
PPASPPAPRPPV	0.759 ± 0.018
PPATTPASTNLQ	0.7 ± 0.017
PPAVDSSPRSRD	0.7148 ± 0.0019
PPCAPFSPPALP	0.659 ± 0.05
PPCCFPRSPSPS	0.714 ± 0.049
PPCPAPLSPPLG	0.676 ± 0.049
PPCPSPPLFLPS	0.687 ± 0.063
PPCRREEQTDNH	0.682 ± 0.059
PPCTVKAQRAYD	0.694 ± 0.035
PPDALTHPTPPQ	0.703 ± 0.013
PPFFLLLPPTIF	0.67 ± 0.063
PPFPKFPRPRLH	0.738 ± 0.04
PPFSHLPYLLPP	0.685 ± 0.015
PPFTARPATLAR	0.565 ± 0.017
PPFVPGEVRRTV	0.6867 ± 0.0036
PPGLRSYACCRN	0.7615 ± 0.0046

Sequence	protein stability index
PPGNPPPRRLTS	0.695 ± 0.053
PPGPLPPLSSTP	0.661 ± 0.034
PPGPVVPPPPPD	0.664 ± 0.027
PPHFPPRPRPGP	0.685 ± 0.015
PPHHSLSPPLPP	0.6607 ± 0.0014
PPHPPAPHPSPT	0.733 ± 0.069
PPHPPNPLPTPQ	0.829 ± 0.17
PPHSALPLPPSP	0.726 ± 0.039
PPHSHCPSAPHN	0.643 ± 0.082
PPLALPPGPARP	0.738 ± 0.016
PPLAMVLYSLFE	0.556 ± 0.013
PPLAPDPPPRVY	0.654 ± 0.013
PPLAPLPSAPLR	0.674 ± 0.058
PPLDPPPAPPPP	0.693 ± 0.08
PPLFPYRPPQPT	0.697 ± 0.099
PPLHPPPPAFVF	0.64175 ± 0.00037
PPLHSSPPAVPP	0.699 ± 0.038
PPLLPLSPRPPA	0.704 ± 0.089
PPLLPPPHPFPP	0.6656 ± 0.0053
PPLLPPPPAFVF	0.668 ± 0.0069
PPLLPRLLTPTP	0.671 ± 0.087
PPLLPSPPRPPL	0.774 ± 0.078
PPLNPPRSPFSP	0.6814 ± 0.0018

Sequence	protein stability index
PPLPAPPQSPHT	0.705 ± 0.028
PPLPLTLRSSPS	0.677 ± 0.031
PPLPPLPAPSPV	0.652 ± 0.021
PPLPPPSVRPSS	0.63 ± 0.028
PPLPPPTPLQCL	0.696 ± 0.027
PPLPPSLPPPPP	0.63 ± 0.12
PPLPPSPPCPPA	0.642 ± 0.079
PPLPPSSPRSLL	0.701 ± 0.018
PPLPRLPPPPLP	0.627 ± 0.029
PPLPRSPSPPPP	0.644 ± 0.028
PPLRLSHFPRAD	0.659 ± 0.06
PPLRPAADFRTT	0.733 ± 0.093
PPLRPGLLYSPS	0.687 ± 0.019
PPLSLSPYPLPH	0.69464 ± 0.0002
PPLVHPCPSSHI	0.801 ± 0.088
PPNTSVPSSLGR	0.667 ± 0.038
PPPAPARPPTPP	0.686 ± 0.11
PPPAPPCRLMSP	0.719 ± 0.059
PPPAPPLLPPLP	0.718 ± 0.033
PPPAPPPSPPSN	0.675 ± 0.044
PPPAPPTPPSPP	0.628 ± 0.028
PPPARSRCTHPT	0.706 ± 0.026
